The target in assay [1] is SACSIN HEPN domain (recombinant, GST-tag removed) (human). The assay can be described thus: native gel or EMSA. (In general: A gel shift assay detects complexes by their altered migration in electrophoresis.)
For assay [2] the target is unchanged. Kind of assay: SEC. A general note: In gel filtration, larger molecules generally elute earlier.

The results in this text go back to publication doi:10.64898/2025.12.18.694329.

The stoichiometry N is a count of units in the complex or per binding partner.

Turning to “SACSIN HEPN domain (recombinant, GST-tag removed) (domain or fragment)”, the stoichiometry N in assay [1] and in assay [2] was 2 in each case.
